Substitutions are numbered along the chain they refer to. Names may count otherwise. Each block holds one binder with its values, some of them ahead of it.
Experiments:
drRecO = molecular target: T1, drRecO (Deinococcus radiodurans, UniProt Q9RW50 1-244); experiment: fluorescence anisotropy
T1 sequence: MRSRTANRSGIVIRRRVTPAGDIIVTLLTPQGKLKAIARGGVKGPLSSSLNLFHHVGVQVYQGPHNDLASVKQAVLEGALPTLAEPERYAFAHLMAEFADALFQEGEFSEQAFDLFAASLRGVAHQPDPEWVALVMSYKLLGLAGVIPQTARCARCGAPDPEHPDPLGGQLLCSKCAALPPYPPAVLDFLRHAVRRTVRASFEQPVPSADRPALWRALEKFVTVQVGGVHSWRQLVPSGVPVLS

drRecO;drRecR K23E/R27E = molecular target: T2, drRecO;drRecR K23E/R27E (Deinococcus radiodurans;Deinococcus …, UniProt Q9RW50;Q9ZNA2 1-244;1-220, |K23E;R27E); experiment: fluorescence anisotropy
T2 sequence 1: T1 sequence
T2 sequence 2: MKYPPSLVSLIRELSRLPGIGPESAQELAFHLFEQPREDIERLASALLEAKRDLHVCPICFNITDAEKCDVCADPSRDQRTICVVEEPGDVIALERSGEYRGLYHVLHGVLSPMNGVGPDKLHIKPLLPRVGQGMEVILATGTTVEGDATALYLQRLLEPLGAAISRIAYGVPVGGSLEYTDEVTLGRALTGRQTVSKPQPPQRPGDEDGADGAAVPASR

drRecO Q59E;drRecR = molecular target: T3, drRecO Q59E;drRecR (Deinococcus radiodurans;Deinococcus …, UniProt Q9RW50;Q9ZNA2 1-244;1-220, Q59E|); experiment: fluorescence anisotropy
T3 sequence 1: T1 sequence with Q59E
T3 sequence 2: T2 sequence 2 with E23K, E27R

drRecR = molecular target: T4, drRecR (Deinococcus radiodurans, UniProt Q9ZNA2 1-220); experiment: fluorescence anisotropy
T4 sequence: T2 sequence 2 with E23K, E27R

drRecO K43E/K72E;drRecR = molecular target: T5, drRecO K43E/K72E;drRecR (Deinococcus radiodurans;Deinococcus …, UniProt Q9RW50;Q9ZNA2 1-244;1-220, K43E;K72E|); experiment: fluorescence anisotropy
T5 sequence 1: T1 sequence with K43E, K72E
T5 sequence 2: T2 sequence 2 with E23K, E27R

drRecO K72E/Q73E;drRecR = molecular target: T6, drRecO K72E/Q73E;drRecR (Deinococcus radiodurans;Deinococcus …, UniProt Q9RW50;Q9ZNA2 1-244;1-220, K72E;Q73E|); experiment: fluorescence anisotropy
T6 sequence 1: T1 sequence with K72E, Q73E
T6 sequence 2: T2 sequence 2 with E23K, E27R

crystal structure = molecular target: the molecule itself; experiment: crystal structure
[1] = molecular target: T7, Deinococcus radiodurans RecO, N-terminal hexa-histidine tag (Deinococcus radiodurans, UniProt Q9RW50 1-244); experiment: crystal structure
T7 sequence (looked up): T1 sequence

SAXS = molecular target: the molecule itself; experiment: SAXS
[2] = molecular target: T8, Deinococcus radiodurans RecO, C-terminal hexa-histidine tag (Deinococcus radiodurans, UniProt Q9RW50 1-244); experiment: SAXS
T8 sequence (looked up): T1 sequence

Binder: TTTTTTTTTTTTTTTTTTTTTTTTTTTTTTTTTTTTTTTTTTTTTTTTTT (ssDNA) [50mer poly(dT) ssDNA]
Kd (drRecO): 8.7 µM
binding result (drRecO;drRecR K23E/R27E): no binding
binding result (drRecO Q59E;drRecR): no binding
binding result (drRecR): no binding
binding result (drRecO K43E/K72E;drRecR): binds
binding result (drRecO K72E/Q73E;drRecR): binds

B1: 50mer dsDNA (dsDNA)
DNA 1: GACTACGTACTGTTACGGCTCCATCTCTACCGCAATCAGGCCAGATCTGC
DNA 2: GCAGATCTGGCCTGATTGCGGTAGAGATGGAGCCGTAACAGTACGTAGTC
binding result (drRecO;drRecR K23E/R27E): no binding
binding result (drRecO Q59E;drRecR): no binding
binding result (drRecR): no binding

binding result [1]: binds
B2: Deinococcus radiodurans RecR K23A/R27A double mutant (natural protein, UniProt Q9ZNA2 1-220, looked up)
chain: T2 sequence 2 with E23A, E27A
stoichiometry N (crystal structure): 4

B3: Deinococcus radiodurans RecR, full length, without tag (natural protein, UniProt Q9ZNA2 1-220, looked up)
chain: T2 sequence 2 with E23K, E27R
stoichiometry N (SAXS): 2

binding result [2]: binds
B4: Deinococcus radiodurans RecR, full length, C-terminal hexa-histidine tag (natural protein, UniProt Q9ZNA2 1-220, looked up)
chain: T2 sequence 2 with E23K, E27R
